Measurements taken from US20260167699A1 (Chugai, published 2026).
Changes are numbered by the printed parent chain.

T1: FcγRIIa(R) extracellular domain with C-terminal His tag (human, UniProt P12318 34-217)
T1 construct: extracellular domain; R131 allotype; also called 2aR; CD32
T1 sequence: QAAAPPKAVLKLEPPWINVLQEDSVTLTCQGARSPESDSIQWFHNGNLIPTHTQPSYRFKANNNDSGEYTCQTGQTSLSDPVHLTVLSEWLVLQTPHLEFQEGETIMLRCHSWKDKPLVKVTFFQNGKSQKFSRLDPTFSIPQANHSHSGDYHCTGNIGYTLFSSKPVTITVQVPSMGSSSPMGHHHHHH

T2: FcγRIIa(H) extracellular domain with C-terminal His tag (human, UniProt P12318 34-217)
T2 construct: extracellular domain; H131 allotype; also called 2aH; CD32
T2 sequence: T1 sequence with R134H

T3: FcγRIIb extracellular domain with C-terminal His tag (human, UniProt P31994 43-217)
T3 construct: extracellular domain; also called 2b; CD32
T3 sequence: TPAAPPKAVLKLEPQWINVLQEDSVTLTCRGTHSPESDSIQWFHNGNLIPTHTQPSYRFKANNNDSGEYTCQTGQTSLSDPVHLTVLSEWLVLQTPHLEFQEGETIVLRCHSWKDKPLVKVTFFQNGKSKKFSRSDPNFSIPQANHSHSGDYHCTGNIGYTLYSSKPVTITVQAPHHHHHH

B1: GpH7-A5/GpH7-B3 variant E333_20W/GpL16-k0 (antibody, human IgG1, kappa)
heavy 1: not shown
heavy 2: not shown
light: DIVMTQSPLSLPVTPGEPASISCQASESLVHSNRNTYLHWYLQKPGQSPQLLIYKVSNRFSGVPDRFSGSGSGTDFTLKISRVEAEDVGVYYCSQNTHVPPTFGQGTKVEIERTVAAPSVFIFPPSDEQLKSGTASVVCLLNNFYPREAKVQWKVDNALQSGNSQESVTEQDSKDSTYSLSSTLTLSKADYEKHKVYACEVTHQGLSSPVTKSFNRGEC
notes: heterodimerized IgG1 (He Ab), mutation in one H chain only; also called He Ab
B2: GpH7-A5/GpH7-B3 variant I332_09D/GpL16-k0 (antibody, human IgG1, kappa)
heavy 1: not shown
heavy 2: not shown
light: B1 light
notes: as for B1
B3: GpH7-A5/GpH7-B3 variant I332_05P/GpL16-k0 (antibody, human IgG1, kappa)
heavy 1: not shown
heavy 2: not shown
light: B1 light
notes: as for B1
B4: GpH7-A5/GpH7-B3 variant I332_02A/GpL16-k0 (antibody, human IgG1, kappa)
heavy 1: not shown
heavy 2: not shown
light: B1 light
notes: as for B1
B5: GpH7-A5/GpH7-B3 variant I336_02A/GpL16-k0 (antibody, human IgG1, kappa)
heavy 1: not shown
heavy 2: not shown
light: B1 light
notes: as for B1
B6: GpH7-A5/GpH7-B3 variant I332_12R/GpL16-k0 (antibody, human IgG1, kappa)
heavy 1: not shown
heavy 2: not shown
light: B1 light
notes: as for B1
B7: GpH7-A5/GpH7-B3 variant I332_06M/GpL16-k0 (antibody, human IgG1, kappa)
heavy 1: not shown
heavy 2: not shown
light: B1 light
notes: as for B1
B8: GpH7-A5/GpH7-B3 variant I332_04F/GpL16-k0 (antibody, human IgG1, kappa)
heavy 1: not shown
heavy 2: not shown
light: B1 light
notes: as for B1
B9: GpH7-A5/GpH7-B3 variant I336_10E/GpL16-k0 (antibody, human IgG1, kappa)
heavy 1: not shown
heavy 2: not shown
light: B1 light
notes: as for B1
B10: GpH7-A5/GpH7-B3 variant I332_01G/GpL16-k0 (antibody, human IgG1, kappa)
heavy 1: not shown
heavy 2: not shown
light: B1 light
notes: as for B1
B11: GpH7-A5/GpH7-B3 variant I332_13S/GpL16-k0 (antibody, human IgG1, kappa)
heavy 1: not shown
heavy 2: not shown
light: B1 light
notes: as for B1
B12: GpH7-A5/GpH7-B3 variant I332_16H/GpL16-k0 (antibody, human IgG1, kappa)
heavy 1: not shown
heavy 2: not shown
light: B1 light
notes: as for B1
B13: GpH7-A5/GpH7-B3 variant I336_06M/GpL16-k0 (antibody, human IgG1, kappa)
heavy 1: not shown
heavy 2: not shown
light: B1 light
notes: as for B1
B14: GpH7-A5/GpH7-B3 variant I332_14T/GpL16-k0 (antibody, human IgG1, kappa)
heavy 1: not shown
heavy 2: not shown
light: B1 light
notes: as for B1
B15: GpH7-A5/GpH7-B3 variant I332_18N/GpL16-k0 (antibody, human IgG1, kappa)
heavy 1: not shown
heavy 2: not shown
light: B1 light
notes: as for B1
B16: GpH7-A5/GpH7-B3 variant I336_03V/GpL16-k0 (antibody, human IgG1, kappa)
heavy 1: not shown
heavy 2: not shown
light: B1 light
notes: as for B1
B17: GpH7-A5/GpH7-B3 variant I336_01G/GpL16-k0 (antibody, human IgG1, kappa)
heavy 1: not shown
heavy 2: not shown
light: B1 light
notes: as for B1
B18: GpH7-A5/GpH7-B3 variant I332_03V/GpL16-k0 (antibody, human IgG1, kappa)
heavy 1: not shown
heavy 2: not shown
light: B1 light
notes: as for B1
B19: GpH7-A5/GpH7-B3 variant I332_10E/GpL16-k0 (antibody, human IgG1, kappa)
heavy 1: not shown
heavy 2: not shown
light: B1 light
notes: as for B1
B20: GpH7-A5/GpH7-B3 variant I332_19Q/GpL16-k0 (antibody, human IgG1, kappa)
heavy 1: not shown
heavy 2: not shown
light: B1 light
notes: as for B1
B21: GpH7-A5/GpH7-B3 variant I332_15Y/GpL16-k0 (antibody, human IgG1, kappa)
heavy 1: not shown
heavy 2: not shown
light: B1 light
notes: as for B1
B22: GpH7-A5/GpH7-B3 variant I336_09D/GpL16-k0 (antibody, human IgG1, kappa)
heavy 1: not shown
heavy 2: not shown
light: B1 light
notes: as for B1
B23: GpH7-A5/GpH7-B3 variant I336_08L/GpL16-k0 (antibody, human IgG1, kappa)
heavy 1: not shown
heavy 2: not shown
light: B1 light
notes: as for B1
B24: GpH7-A5/GpH7-B3 variant I336_04F/GpL16-k0 (antibody, human IgG1, kappa)
heavy 1: not shown
heavy 2: not shown
light: B1 light
notes: as for B1
B25: GpH7-A5/GpH7-B3 variant I332_20W/GpL16-k0 (antibody, human IgG1, kappa)
heavy 1: not shown
heavy 2: not shown
light: B1 light
notes: as for B1
B26: GpH7-A5/GpH7-B3 variant I332_08L/GpL16-k0 (antibody, human IgG1, kappa)
heavy 1: not shown
heavy 2: not shown
light: B1 light
notes: as for B1

What follows are binders tested against T4, FcγRIa extracellular domain with C-terminal His tag (human, UniProt P12314 16-292) (assay: SPR; % of GpH7-A5/GpH7-B3/GpL16-k0).
T4 construct: extracellular domain; also called 1a; CD64
T4 sequence (P12314 other isoform, or with tags, fused parts or gaps): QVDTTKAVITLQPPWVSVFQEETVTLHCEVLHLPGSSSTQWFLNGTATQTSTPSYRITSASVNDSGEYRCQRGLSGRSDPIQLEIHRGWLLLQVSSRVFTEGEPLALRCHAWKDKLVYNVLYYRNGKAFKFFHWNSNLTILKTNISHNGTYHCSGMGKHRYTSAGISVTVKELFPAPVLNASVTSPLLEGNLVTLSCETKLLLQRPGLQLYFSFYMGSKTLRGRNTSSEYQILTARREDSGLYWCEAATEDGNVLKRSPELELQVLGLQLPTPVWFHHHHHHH

Row | Binder | He/Con 1a
1 | B1 | 93.9%
2 | B2 | 106%
3 | B3 | 99.2%
4 | B4 | 100%
5 | B5 | 109%
6 | B6 | 102%
7 | B7 | 105%
8 | B8 | 106%
9 | B9 | 111%
10 | B10 | 102%
11 | B11 | 97.3%
12 | B12 | 100%
13 | B13 | 112%
14 | B14 | 104%
15 | B15 | 99.3%
16 | B16 | 108%
17 | B17 | 112%
18 | B18 | 100%
19 | B19 | 109%
20 | B20 | 103%
21 | B21 | 101%
22 | B22 | 107%
23 | B23 | 111%
24 | B24 | 109%
25 | B25 | 104%
26 | B26 | 104%

Each binder was assayed against T1, FcγRIIa(R) extracellular domain with … (assay: SPR; % of GpH7-A5/GpH7-B3/GpL16-k0).

Row | Binder | He/Con 2aR
27 | B1 | 132%
28 | B2 | 118%
29 | B3 | 80.5%
30 | B4 | 96.9%
31 | B5 | 100%
32 | B6 | 73.5%
33 | B7 | 108%
34 | B8 | 104%
35 | B9 | 104%
36 | B10 | 92.2%
37 | B11 | 97.9%
38 | B12 | 97.6%
39 | B13 | 112%
40 | B14 | 104%
41 | B15 | 98.3%
42 | B16 | 104%
43 | B17 | 104%
44 | B18 | 87%
45 | B19 | 113%
46 | B20 | 95.1%
47 | B21 | 109%
48 | B22 | 104%
49 | B23 | 116%
50 | B24 | 105%
51 | B25 | 117%
52 | B26 | 91%

Each binder was assayed against T2, FcγRIIa(H) extracellular domain with … (assay: SPR; % of GpH7-A5/GpH7-B3/GpL16-k0).

Row | Binder | He/Con 2aH
53 | B1 | 106%
54 | B2 | 122%
55 | B3 | 69.9%
56 | B4 | 115%
57 | B5 | 102%
58 | B6 | 104%
59 | B7 | 114%
60 | B8 | 108%
61 | B9 | 105%
62 | B10 | 102%
63 | B11 | 113%
64 | B12 | 113%
65 | B13 | 110%
66 | B14 | 119%
67 | B15 | 114%
68 | B16 | 106%
69 | B17 | 100%
70 | B18 | 108%
71 | B19 | 112%
72 | B20 | 112%
73 | B21 | 119%
74 | B22 | 100%
75 | B23 | 109%
76 | B24 | 98.3%
77 | B25 | 115%
78 | B26 | 94.9%

What follows are binders tested against T3, FcγRIIb extracellular domain with … (assay: SPR; % of GpH7-A5/GpH7-B3/GpL16-k0).

Row | Binder | He/Con 2b
79 | B1 | 116%
80 | B2 | 163%
81 | B3 | 83.7%
82 | B4 | 114%
83 | B5 | 92.8%
84 | B6 | 60.9%
85 | B7 | 116%
86 | B8 | 115%
87 | B9 | 98.2%
88 | B10 | 96.6%
89 | B11 | 109%
90 | B12 | 103%
91 | B13 | 111%
92 | B14 | 118%
93 | B15 | 99.6%
94 | B16 | 98.7%
95 | B17 | 98.4%
96 | B18 | 89.5%
97 | B19 | 158%
98 | B20 | 104%
99 | B21 | 112%
100 | B22 | 101%
101 | B23 | 117%
102 | B24 | 99.6%
103 | B25 | 102%
104 | B26 | 91.3%

Each binder was assayed against T5, FcγRIIIa extracellular domain with C-terminal His tag (human, UniProt P08637 17-208) (assay: SPR; % of GpH7-A5/GpH7-B3/GpL16-k0).
T5 construct: extracellular domain; also called 3a; CD16
T5 sequence (P08637 other isoform, or with tags, fused parts or gaps): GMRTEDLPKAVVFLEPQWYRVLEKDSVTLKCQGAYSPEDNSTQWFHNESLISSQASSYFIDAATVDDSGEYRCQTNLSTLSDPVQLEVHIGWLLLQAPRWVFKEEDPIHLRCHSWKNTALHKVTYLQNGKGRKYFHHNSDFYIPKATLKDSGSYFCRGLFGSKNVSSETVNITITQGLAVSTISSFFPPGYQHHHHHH

Row | Binder | He/Con 3a
105 | B1 | 104%
106 | B2 | 189%
107 | B3 | 56.3%
108 | B4 | 103%
109 | B5 | 106%
110 | B6 | 78.1%
111 | B7 | 92.5%
112 | B8 | 89.3%
113 | B9 | 114%
114 | B10 | 101%
115 | B11 | 95.6%
116 | B12 | 89%
117 | B13 | 104%
118 | B14 | 110%
119 | B15 | 84.9%
120 | B16 | 107%
121 | B17 | 94.6%
122 | B18 | 85.2%
123 | B19 | 213%
124 | B20 | 101%
125 | B21 | 92.4%
126 | B22 | 102%
127 | B23 | 102%
128 | B24 | 93.2%
129 | B25 | 116%
130 | B26 | 76%
